Experiments:
[1] = target: T1, myc-tagged IQGAP1 WW domain expressed from lentivirus (pLEX-mycWW)
T1 chain: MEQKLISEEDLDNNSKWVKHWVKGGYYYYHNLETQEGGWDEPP

[2] = target: myc-tagged mutant IQGAP1 WW domain expressed from lentivirus (pLEX-mycYY)

B1: ERK1 (extracellular signal-regulated kinase 1), endogenous (protein)
chain: AAAAAQGGGGGEPRRTEGVGPGVPGEVEMVKGQPFDVGPRYTQLQYIGEGAYGMVSSAYDHVRKTRVAIKKISPFEHQTYCQRTLREIQILLRFRHENVIGIRDILRASTLEAMRDVYIVQDLMETDLYKLLKSQQLSNDHICYFLYQILRGLKYIHSANVLHRDLKPSNLLINTTCDLKICDFGLARIADPEHDHTGFLTEYVATRWYRAPEIMLNSKGYTKSIDIWSVGCILAEMLSNRPIFPGKHYLDQLNHILGILGSPSQEDLNCIINMKARNYLQSLPSKTKVAWAKLFPKSDSKALDLLDRMLTFNPNKRITVEEALAHPYLEQYYDPTDEPVAEEPFTFAMELDDLPKERLKELIFQETARFQPGVLEAP
- pELK1 levels in IP-kinase assay (pERK immunoprecipitate, ELK-1 substrate) [1]: revealed diminished downstream pELK1 levels as compared to control treated cells
- phosphorylated ERK levels (tissue stain and immunoblot) [1]: WW domain expressing tissue also showed diminished phosphorylated ERK without an effect on total ERK levels
- phosphorylated ERK levels (immunoblot) [2]: Primary normal human keratinocytes infected with this WW domain mutant had normal levels of phosphorylated ERK

Source: US20140162960
